From patent US9457043B2, “Combination therapy using c-Met inhibitor and c-Myc inhibitor” (Samsung Electronics Co., Ltd., priority 2013, dated 2016)

Tests used:
HCC1954 cells = test: Cell proliferation (CellTiter Glo) in HCC1954 breast cancer cells; assay type: cell-based; conditions: L3-1Y/IgG2 0-2 μg/ml, 72 hours after antibody treatment, siRNA reverse transfected 24 hours before, FIG. 1
Description: (§1) To confirm the effect of co-administration in a breast cancer cell on which an anti-c-Met antibody has no effect when administered alone, HCC1954 (ATCC, CRL 2338) cells were used for assaying the effect of co-administration on cell proliferation.
In particular, a mixture of c-Myc siRNAs (sic-Myc; mixture of siRNA pools wherein 5′-[…]-3′ (SEQ ID NO: 119), 5′-[…]-3′ (SEQ ID NO: 120), 5′-[…]-3′ (SEQ ID NO: 121), and 5′-[…]-3′ (SEQ ID NO: 122) are mixed at the molar ratio of 1:1:1:1) was reverse transfected to HCC1954 cells and the transfected cells were incubated in 96-well plate at the amount of 5000 cells/well (medium: 10% FBS in RPMI 1640 (GIBCO), incubation temperature: 37° C.). The reverse transfection was conducted using lipofectamine RNAi max (invitrogen). The reverse transfection was conducted by pre-incubating 10˜20 uM of siRNA diluted in opti-MEM (Gibco) and lipofectamine RNAi max diluted in opti-MEM (Gibco) at room temperature for 15 minutes, and then mixing with 5000 cells/well of the incubated cells, to allow reverse transfection. 24 hours after, the prepared cells were treated with L3-1Y/IgG2. […] The number of the cells was counted through luminescence signal, and the luminescence signal was recorded using Envision 2104 Multi-label Reader (Perkin Elmer). […]

HT-29 cells = test: Cell proliferation (CellTiter Glo) in HT-29 colon cancer cells; assay type: cell-based; conditions: L3-1Y/IgG2 0-2 μg/ml, 72 hours, FIG. 2
Description: as §1, with “colon” for “breast”, “HT-29” for “HCC1954”, “HTB-38), Ls174T (ATCC, CCL-188), SW620 (ATCC, CCL-227), and LoVo (ATCC, CCL-229)” for “CRL 2338)”
(§2) In particular, a mixture of c-Myc siRNAs (sic-Myc; mixture of siRNA pools wherein 5′-[…]-3′ (SEQ ID NO: 119), 5′-[…]-3′ (SEQ ID NO: 120), 5′-[…]-3′ (SEQ ID NO: 121), and 5′-[…]-3′ (SEQ ID NO: 122) are mixed at the molar ratio of 1:1:1:1) was reverse transfected to each of HT-29, Ls174T, SW620, and LoVo cells and each transfected cells were incubated in 96-well plate at the amount of 5000 cells/well (medium: 10% FBS in RPMI 1640 (GIBCO), incubation temperature: 37° C.). The reverse transfection was conducted using lipofectamine RNAi max (invitrogen). The reverse transfection was conducted by pre-incubating 10˜20 uM of siRNA diluted in opti-MEM (Gibco) and lipofectamine RNAi max diluted in opti-MEM (Gibco) at room temperature for 15 minutes, and then mixing with 5000 cells/well of the incubated cells, to allow reverse transfection. 24 hours after, the prepared cells were treated with L3-1Y/IgG2. […] The number of the cells was counted through luminescence signal, and the luminescence signal was recorded using Envision 2104 Multi-label Reader (Perkin Elmer). […]

Ls174T cells = test: Cell proliferation (CellTiter Glo) in Ls174T colon cancer cells; assay type: cell-based; conditions: L3-1Y/IgG2 0-2 μg/ml, 72 hours, FIG. 3
Description: as §1, with “colon” for “breast”, “HT-29” for “HCC1954”, “HTB-38), Ls174T (ATCC, CCL-188), SW620 (ATCC, CCL-227), and LoVo (ATCC, CCL-229)” for “CRL 2338)”
as §2

SW620 cells = test: Cell proliferation (CellTiter Glo) in SW620 colon cancer cells; assay type: cell-based; conditions: L3-1Y/IgG2 0-2 μg/ml, 72 hours, FIG. 4
Description: as §1, with “colon” for “breast”, “HT-29” for “HCC1954”, “HTB-38), Ls174T (ATCC, CCL-188), SW620 (ATCC, CCL-227), and LoVo (ATCC, CCL-229)” for “CRL 2338)”
as §2

LoVo cells = test: Cell proliferation (CellTiter Glo) in LoVo colon cancer cells; assay type: cell-based; conditions: L3-1Y/IgG2 0-2 μg/ml, 72 hours, FIG. 5
Description: as §1, with “colon” for “breast”, “HT-29” for “HCC1954”, “HTB-38), Ls174T (ATCC, CCL-188), SW620 (ATCC, CCL-227), and LoVo (ATCC, CCL-229)” for “CRL 2338)”
as §2

c-Myc = c-Myc expression level by western blotting in HT-29 cells; assay type: cell-based; conditions: 1 μg/ml L3-1Y/IgG2 for 24 hours, western blot, beta-actin control, FIG. 7
Method: To reveal the causes of acquirement of effect by co-treatment of an anti-c-Met antibody and c-Myc siRNA on colon cancer cell on which the antibody solely has no effect, the expression level of c-Myc in HT29 (ATCC, HTB-38) treated with an anti-c-Met antibody was measured.
In particular, 20000 cells of HT-29 cell was incubated in 60 mm plate (medium: 10% FBS in RPMI 1640 (GIBCO), incubation temperature: 37° C.). 24 hours after, 1 μg/ml of L3-1Y/IgG2 was treated thereto. 24 hours after, the cells were lysed using Lysis buffer (Roche), thereby obtaining proteins. The concentration of the obtained proteins was measured, and 20 ug of each protein was loaded and subjected to western blotting. The expression amount of c-Myc was detected using c-Myc antibody (Santa-Cruz). A group which is not treated with L3-1Y/IgG2 was used as a control, and the expression amount of beta-actin was used as a control of expression amount of proteins.

c-Met = c-Met (Homo sapiens, UniProt P08581); test: Specificity of expressed scFv to c-Met; assay type: binding; conditions: scFv product after expression
Description: For use in constructing an scFv of the huAbF46 antibody from the heavy and light chain variable regions of the huAbF46 antibody, a gene was designed to have the structure of “VH-linker-VL” for each of the heavy and the light chain variable region, with the linker including the amino acid sequence “[…]” (SEQ ID NO: 54). A polynucleotide sequence (SEQ ID NO: 55) coding for the designed scFv of huAbF46 was synthesized in Bioneer and an expression vector for the polynucleotide had the nucleotide sequence of SEQ ID NO: 56.

c-Met, sequence (P08581 25-1390): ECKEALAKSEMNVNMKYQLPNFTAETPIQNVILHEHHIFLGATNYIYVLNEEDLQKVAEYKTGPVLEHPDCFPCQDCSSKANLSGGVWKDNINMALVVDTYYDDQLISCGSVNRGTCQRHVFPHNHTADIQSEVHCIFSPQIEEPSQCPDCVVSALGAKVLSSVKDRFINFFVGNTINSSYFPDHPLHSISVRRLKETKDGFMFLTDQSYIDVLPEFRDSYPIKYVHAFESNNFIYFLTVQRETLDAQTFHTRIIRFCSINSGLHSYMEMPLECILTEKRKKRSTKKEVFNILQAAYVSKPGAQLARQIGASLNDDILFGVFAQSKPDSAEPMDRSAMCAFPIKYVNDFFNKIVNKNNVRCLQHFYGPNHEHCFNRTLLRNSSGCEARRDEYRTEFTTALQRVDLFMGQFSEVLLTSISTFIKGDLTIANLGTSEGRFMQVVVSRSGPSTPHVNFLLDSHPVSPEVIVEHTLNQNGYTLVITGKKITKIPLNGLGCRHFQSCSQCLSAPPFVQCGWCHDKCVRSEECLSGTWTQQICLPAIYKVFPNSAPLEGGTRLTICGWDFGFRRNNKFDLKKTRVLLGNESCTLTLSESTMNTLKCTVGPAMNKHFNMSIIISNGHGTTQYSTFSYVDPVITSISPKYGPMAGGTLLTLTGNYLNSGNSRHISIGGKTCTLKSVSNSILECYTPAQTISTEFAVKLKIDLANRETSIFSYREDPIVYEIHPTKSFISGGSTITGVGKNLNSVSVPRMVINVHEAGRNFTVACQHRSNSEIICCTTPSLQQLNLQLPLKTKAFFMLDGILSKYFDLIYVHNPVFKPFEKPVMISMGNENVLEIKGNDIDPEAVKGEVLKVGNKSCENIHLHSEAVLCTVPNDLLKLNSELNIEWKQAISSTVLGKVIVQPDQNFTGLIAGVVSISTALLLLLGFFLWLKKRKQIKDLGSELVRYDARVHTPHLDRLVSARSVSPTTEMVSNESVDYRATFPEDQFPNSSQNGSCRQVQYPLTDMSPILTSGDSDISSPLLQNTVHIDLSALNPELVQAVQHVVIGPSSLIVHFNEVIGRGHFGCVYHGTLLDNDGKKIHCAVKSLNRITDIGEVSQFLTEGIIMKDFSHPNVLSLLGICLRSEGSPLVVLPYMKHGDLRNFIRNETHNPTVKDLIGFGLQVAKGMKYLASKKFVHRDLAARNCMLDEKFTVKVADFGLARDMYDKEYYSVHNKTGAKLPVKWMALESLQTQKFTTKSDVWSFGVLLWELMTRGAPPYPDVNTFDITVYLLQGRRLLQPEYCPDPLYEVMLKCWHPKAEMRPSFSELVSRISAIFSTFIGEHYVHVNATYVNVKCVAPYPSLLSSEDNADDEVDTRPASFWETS

B1: L3-1Y/IgG2: anti-c-Met antibody: huAbF46-H4-A1 heavy chain variable region, human IgG2 hinge and constant region, kappa light chain with tyrosine at position 36 (antibody)
heavy: EVQLVESGGGLVQPGGSLRLSCAASGFTFTDYYMSWVRQAPGKGLEWLGFIRNKANGYTTEYSASVKGRFTISRDNSKNTLYLQMNSLRAEDTAVYYCARDNWFAYWGQGTLVTVSSASTKGPSVFPLAPCSRSTSESTAALGCLVKDYFPEPVTVSWNSGALTSGVHTFPAVLQSSGLYSLSSVVTVPSSNFGTQTYTCNVDHKPSNTKVDKTVERKCCVECPPCPAPPVAGPSVFLFPPKPKDTLMISRTPEVTCVVVDVSHEDPEVQFNWYVDGVEVHNAKTKPREEQFNSTFRVVSVLTVVHQDWLNGKEYKCKVSNKGLPAPIEKTISKTKGQPREPQVYTLPPSREEMTKNQVSLTCLVKGFYPSDIAVEWESNGQPENNYKTTPPMLDSDGSFFLYSKLTVDKSRWQQGNVFSCSVMHEALHNHYTQKSLSLSPGK
light: DIQMTQSPSSLSASVGDRVTITCKSSQSLLASGNQNNYLAWYQQKPGKAPKMLIIWASTRVSGVPSRFSGSGSGTDFTLTISSLQPEDFATYYCQQSYSRPYTFGQGTKVEIKRTVAAPSVFIFPPSDEQLKSGTASVVCLLNNFYPREAKVQWKVDNALQSGNSQESVTEQDSKDSTYSLSSTLTLSKADYEKHKVYACEVTHQGLSSPVTKSFNRGEC
- cell proliferation inhibition effect (HCC1954 cells): no cell proliferation inhibition effect is observed
- cell proliferation inhibition effect (HT-29 cells): no cell proliferation inhibition effect is observed
- cell proliferation inhibition effect (Ls174T cells): no cell proliferation inhibition effect is observed
- cell proliferation inhibition effect (SW620 cells): no cell proliferation inhibition effect is observed
- cell proliferation inhibition effect (LoVo cells): no cell proliferation inhibition effect is observed
- amount of c-Myc (expression) (c-Myc): increased amount of c-Myc

B2: scFv of huAbF46: VH-linker-VL single-chain Fv of huAbF46 with linker SEQ ID NO: 54 (protein)
scFv: EVQLVESGGGLVQPGGSLRLSCAASGFTFTDYYMSWVRQAPGKGLEWLGFIRNKANGYTTEYSASVKGRFTISRDNSKNTLYLQMNSLRAEDTAVYYCARDNWFAYWGQGTLVTVSSGLGGLGGGGSGGGGSGGSSGVGSDIQMTQSPSSLSASVGDRVTITCKSSQSLLASGNQNNYLAWHQQKPGKAPKMLIIWASTRVSGVPSRFSGSGSGTDFTLTISSLQPEDFATYYCQQSYSAPLTFGQGTKVEIKR
- specificity to c-Met (c-Met): exhibit specificity to c-Met
